Test [1] deals with Crotalus durissus terrificus venom. In words: ELISA, C.d.t. venom-coated plate, dilution 1:625. A general note: In an ELISA, binding on a coated surface is turned into a signal by an enzyme label.
For test [2] the target is unchanged. The experiment in a line: ELISA, C.d.t. venom-coated plate, dilution 1:62,500.
Test [3] has the same target. The experiment in a line: ELISA, C.d.t. venom-coated plate, dilution 1:2,500.
The target is the same in test [4]. In words: ELISA, C.d.t. venom-coated plate, dilution 1:25.
Test [5] has the same target. The experiment in a line: ELISA, C.d.t. venom-coated plate, dilution 1:125.
Test [6] has the same target. The experiment in a line: ELISA, C.d.t. venom-coated plate (5 µg/ml), dilution 1:625.
Test [7] has the same target. The experiment in a line: ELISA, C.d.t. venom-coated plate, dilution 1:500.
Test [8] has the same target. The experiment in a line: ELISA, C.d.t. venom-coated plate (5 µg/ml), dilution 1:125.
Test [9] shares this target. In words: ELISA, C.d.t. venom-coated plate (5 µg/ml), dilution 1:25.
Test [10] shares this target. In words: ELISA, C.d.t. venom-coated plate (5 µg/ml), undiluted.
Test [11] has the same target. The experiment in a line: ELISA, C.d.t. venom-coated plate, dilution 1:5.
Test [12] has the same target. The experiment in a line: ELISA, C.d.t. venom-coated plate (5 µg/ml), dilution 1:3125.
The target is the same in test [13]. The experiment in a line: ELISA, C.d.t. venom-coated plate (5 µg/ml), dilution 1:5.
For test [14] the target is unchanged. In words: ELISA, C.d.t. venom-coated plate, dilution 1:12,500.
Test [15] has the same target. In words: ELISA, C.d.t. venom-coated plate, dilution 1:312,500.
Test [16] has the same target. The experiment in a line: ELISA, C.d.t. venom-coated plate, dilution 1:3125.

Take “preimmune IgY (PEG preparation from eggs of unimmunized hens or purchased eggs) (antibody)”: the absorbance (ELISA) in test [1] was below 0 OD; in test [4], 0.016 OD; in [5] it was below 0 OD; in [6], 0 OD; in test [8] it was 0.003 OD; in [9], 0 OD. The absorbance (ELISA) was 0.003 OD in [10]; below 0 OD in [11]; 0.002 OD in test [12]; below 0 OD in test [13]; below 0 OD in [16]. Besides, the absorbance (412 nm filter) in test [2] came out at 0.001 OD; in [3], 0.004 OD; in [7], 0.005 OD; in test [14], 0.001 OD; in test [15], 0.01 OD.
